Publication PMC6600415

Molecular target: low-density lipoprotein receptor-related protein 6 (LRP6), O75581

| TOPflash luciferase reporter activity in HEK 293T cells, percent inhibition, two concentrations up to 500 ng/mL (4.2 nM) [%] | TOPflash luciferase reporter activity in HEK 293T cells, percent inhibition; TEV-cleaved LysRS-DKK2-Fc (2): mixed with TEV protease and immediately added to cells [%] | Binder |
| --- | --- | --- |
| 47 | – | LysRS-DKK2-Fc fusion protein, Q9UBU2 34-259 (Fc fusion) KLNSIKSSLGGETPGQAANRSAGMYQGLAFGGSKKGKNLGQAYPCSSDKECEVGRYCHSPHQGSSACMVCRRKKKRCHRDGMCCPSTRCNNGICIPVTESILTPHIPALDGTRHRDRNHGHYSNHDLGWQNLGRPHTKMSHIKGHEGDPCLRSSDCIEGFCCARHFWTKICKPVLHQGEVCTKQRKKGSHGLEIFQRCDCAKGLSCKVWKDATYSSKARLHVCQKI |
| – | 18 | TEV-cleaved LysRS-DKK2-Fc (DKK2-Fc released by TEV protease), Q9UBU2 34-259 (Fc fusion) KLNSIKSSLGGETPGQAANRSAGMYQGLAFGGSKKGKNLGQAYPCSSDKECEVGRYCHSPHQGSSACMVCRRKKKRCHRDGMCCPSTRCNNGICIPVTESILTPHIPALDGTRHRDRNHGHYSNHDLGWQNLGRPHTKMSHIKGHEGDPCLRSSDCIEGFCCARHFWTKICKPVLHQGEVCTKQRKKGSHGLEIFQRCDCAKGLSCKVWKDATYSSKARLHVCQKI |
